Tests used:
Experiment in all cases: immunofluorescence (legend of FIG. 4)
[1] = target: T1, human ALK2-Q207E on cells (human, UniProt Q04771 21-509)
T1 sequence: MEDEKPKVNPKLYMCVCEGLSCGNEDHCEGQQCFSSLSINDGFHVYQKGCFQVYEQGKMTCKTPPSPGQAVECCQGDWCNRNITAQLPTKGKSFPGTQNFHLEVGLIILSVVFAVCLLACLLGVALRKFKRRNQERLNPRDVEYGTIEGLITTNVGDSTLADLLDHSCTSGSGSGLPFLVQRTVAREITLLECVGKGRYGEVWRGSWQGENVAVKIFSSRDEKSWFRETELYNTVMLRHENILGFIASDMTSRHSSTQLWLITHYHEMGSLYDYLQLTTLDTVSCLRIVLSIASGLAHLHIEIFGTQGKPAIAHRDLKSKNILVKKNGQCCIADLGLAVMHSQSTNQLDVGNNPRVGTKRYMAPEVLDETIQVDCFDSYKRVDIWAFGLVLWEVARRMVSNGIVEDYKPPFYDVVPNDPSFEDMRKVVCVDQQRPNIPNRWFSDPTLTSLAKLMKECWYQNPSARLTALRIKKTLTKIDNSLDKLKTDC
Outline: (§1)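 C2C12 mouse myoblasts transfected overnight with human ALK2 cDNA (wild-type or FOP variants incl. G325A, pcDEF3 vector). Cells formalin-fixed, goat-serum blocked, stained 1 h RT with purified IgG at 10 µg/mL, then Alexa 594 anti-rat IgG 1 h; DAPI nuclei, fluorescence microscopy read-out.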

[2] = target: T2, human ALK2-R258S on cells (human, UniProt Q04771 21-509)
T2 sequence: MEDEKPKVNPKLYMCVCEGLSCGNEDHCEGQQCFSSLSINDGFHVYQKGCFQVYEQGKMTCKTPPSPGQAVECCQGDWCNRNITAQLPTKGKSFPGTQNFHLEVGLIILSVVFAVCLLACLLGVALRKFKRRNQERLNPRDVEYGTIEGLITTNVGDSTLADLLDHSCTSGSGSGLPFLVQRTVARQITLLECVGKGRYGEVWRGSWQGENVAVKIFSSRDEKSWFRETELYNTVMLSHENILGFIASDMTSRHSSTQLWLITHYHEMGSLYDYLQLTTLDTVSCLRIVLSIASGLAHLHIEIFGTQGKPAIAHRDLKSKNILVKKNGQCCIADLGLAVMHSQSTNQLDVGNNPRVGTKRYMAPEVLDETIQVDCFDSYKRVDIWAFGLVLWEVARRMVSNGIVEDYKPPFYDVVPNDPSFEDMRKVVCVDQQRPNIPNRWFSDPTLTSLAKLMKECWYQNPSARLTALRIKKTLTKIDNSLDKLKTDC
Outline: as §1

[3] = target: T3, human ALK2-G328E on cells (human, UniProt Q04771 21-509)
T3 sequence: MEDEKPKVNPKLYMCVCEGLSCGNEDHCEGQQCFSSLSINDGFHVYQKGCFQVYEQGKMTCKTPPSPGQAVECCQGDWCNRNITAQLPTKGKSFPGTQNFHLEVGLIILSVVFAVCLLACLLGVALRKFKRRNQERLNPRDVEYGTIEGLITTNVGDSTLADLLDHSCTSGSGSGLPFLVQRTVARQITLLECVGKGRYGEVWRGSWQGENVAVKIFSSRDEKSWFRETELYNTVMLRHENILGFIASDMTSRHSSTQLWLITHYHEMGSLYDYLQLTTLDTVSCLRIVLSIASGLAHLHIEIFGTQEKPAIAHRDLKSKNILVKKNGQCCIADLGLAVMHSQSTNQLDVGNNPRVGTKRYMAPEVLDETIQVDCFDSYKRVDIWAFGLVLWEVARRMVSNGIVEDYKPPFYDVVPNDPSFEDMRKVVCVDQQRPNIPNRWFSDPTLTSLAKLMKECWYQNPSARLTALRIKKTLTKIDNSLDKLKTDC
Outline: as §1

Measured: binding result

B1: rat anti-ALK2 monoclonal antibody A2-15A (antibody, V domains shown)
VH: EVQLVESGGGLVQPGRSLKLSCAASGFTFSHYYMAWVRQAPTKGLEWVASITNSGGSINYRDSVKGRFTISRDNAKSTLYLQMDSLRSEDTATYYCTREGGENYGGYPPFAYWGQGTLVTVSS
VL: DIVLTQSPALAVSLGQRATISCRANQGVSLSRYNLMHWYQQKPGQKPKLLIYRSSNLASGIPARFSGSGSGTDFTLTINPVQADDIATYYCQQSRESPFTFGAGTKLELKR
notes: Rat monoclonal IgG from a hybridoma; also called 15A6
binds: all assays above

B2: rat anti-ALK2 monoclonal antibody A2-11E (antibody, V domains shown)
VH: EVQLVETGGGLVQPGRSLKLSCVASGFTFSNYYMYWIRQAPGKGLEWISSINTDGGSTYYPDSVKGRFAISRDNAENTVYLQMNSLRSEDTATYYCAKSTPNIPLAYWGQGTLVTVSS
VL: DIQMTQSPSLLSASVGDRVTLSCKASQNIYKYLNWFQQKLGEAPKLLIYYSNSLQTGIPSRFSGSGSGTDFTLTISSLQPEDVAIYFCFQYSSGPTFGPGTKLELKR
notes: Rat monoclonal IgG from a hybridoma; also called 11E2
binds: all assays above

Source: patent US20220041738A1 (SAITAMA MEDICAL UNIVERSITY, published 2022)
